Test results taken from patent US20210147566A1.

Target: human transferrin receptor (TFR) on Raji cells (human) (UniProt P02786)
Assay: FACS on Raji cells, secondary antibody without IgG1 clone [CONTINUED]

human transferrin receptor (TFR) on Raji cells (human), sequence (P02786 whole entry): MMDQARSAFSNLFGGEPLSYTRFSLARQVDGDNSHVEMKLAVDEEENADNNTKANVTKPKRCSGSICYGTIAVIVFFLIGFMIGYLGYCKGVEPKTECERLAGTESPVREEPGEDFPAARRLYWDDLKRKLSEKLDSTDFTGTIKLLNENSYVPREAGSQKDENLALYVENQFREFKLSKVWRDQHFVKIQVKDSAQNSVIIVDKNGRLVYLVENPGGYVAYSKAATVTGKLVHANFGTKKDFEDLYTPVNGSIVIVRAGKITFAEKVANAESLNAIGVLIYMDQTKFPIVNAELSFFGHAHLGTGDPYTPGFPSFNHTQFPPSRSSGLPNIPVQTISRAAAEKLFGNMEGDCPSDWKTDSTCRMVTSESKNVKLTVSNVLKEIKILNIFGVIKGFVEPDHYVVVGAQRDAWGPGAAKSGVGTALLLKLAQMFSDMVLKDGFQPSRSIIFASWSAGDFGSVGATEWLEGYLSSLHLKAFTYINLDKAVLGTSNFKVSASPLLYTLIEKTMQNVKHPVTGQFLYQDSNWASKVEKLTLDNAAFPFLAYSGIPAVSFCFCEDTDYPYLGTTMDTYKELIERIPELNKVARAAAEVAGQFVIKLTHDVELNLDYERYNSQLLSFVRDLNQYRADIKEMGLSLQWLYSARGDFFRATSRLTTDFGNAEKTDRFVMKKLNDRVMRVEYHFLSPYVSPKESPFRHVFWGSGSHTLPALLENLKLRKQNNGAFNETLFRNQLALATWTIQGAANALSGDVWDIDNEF

TFR gate, percent of cells: 19.1
Substance: ANTI-FAB ALEXA FLUOR 647 (antibody)
